The record followed here is patent US20220340642A1 (Kyowa Kirin, published 2022).

Changes are numbered by the printed parent chain. Names may count otherwise.

Test [1] deals with T1, membrane-bound human FasL (Met and FLAG tag at the N-terminus) on CHO-K1 cells (human, UniProt P48023 2-281).
T1 construct: also called FasL/CHO
T1 sequence: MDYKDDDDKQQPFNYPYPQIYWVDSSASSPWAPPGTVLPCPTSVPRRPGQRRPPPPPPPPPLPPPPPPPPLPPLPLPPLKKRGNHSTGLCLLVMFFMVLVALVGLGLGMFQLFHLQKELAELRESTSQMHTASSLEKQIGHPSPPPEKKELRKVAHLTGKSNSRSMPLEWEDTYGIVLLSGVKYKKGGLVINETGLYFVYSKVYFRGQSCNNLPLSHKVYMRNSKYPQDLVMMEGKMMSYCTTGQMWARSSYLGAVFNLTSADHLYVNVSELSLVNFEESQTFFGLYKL
The experiment in a line: flow cytometry on expressing cells. In short, it runs like this:
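Binding was measured by flow cytometry on HEK293 cells forced to express membrane-bound LIGHT and on cell lines expressing N-terminally Met/FLAG-tagged TL1A or FasL from a CMV-promoter pClpuro vector. Cells at 1×10⁵ cells/well received 1 or 10 μg/mL protein on ice for 1 hour. After washing, cells were stained on ice for 1 hour with LIVE/DEAD Fixable Aqua and R-phycoerythrin goat F(ab′)₂ anti-human IgG (10 ng/mL, 0.1 or 1 μg/mL). Fluorescence was read on a FACS Fortessa.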
On the technique in general: Flow cytometry measures light scatter and fluorescence of single cells or particles in a stream.

Test [2] deals with primary soluble LIGHT produced from activated human T cells (human, UniProt O43557 83-240, limits assumed). The test can be described thus: sandwich ELISA, binder captured. As for the experimental part: Then, 10 μg/mL of anti-human IgG antibodies (American Qualex International, Inc.) were immobilized to a 96-well immunoplate (Thermo Scientific), and blocking was performed with 2% Block Ace (DS Pharma Biomedical Co., Ltd.), and then 2 μg/mL of chimera A-Fc, E57K-Fc and 45-18-Fc (in all of which Fc is Eg1S YTE or Eg1S […]) were captured. The culture supernatant of human T cells stimulated for LIGHT production was concentrated 6-fold using Amicon Ultra-15 having a molecular weight cutoff of 3 kDa (Merck Millipore) prerinsed with sterile water. After the plate was washed, the 6-fold concentrated culture supernatant was reacted. As a standard of LIGHT, the soluble recombinant FLAG-LIGHT trimer produced in Example 13 was used. After the plate was washed, a biotinylated anti-LIGHT antibody (R&D Systems, Inc.) was reacted. After the plate was washed, streptavidin-HRP (PIERCE) was reacted. After washing again, a TMB solution (Dako) was added to develop a color. Then, a 2 N sulfuric acid solution was used to stop the chromogenic reaction, and the absorbance at 450 nm (reference wavelength of 570 nm) was measured.
Sandwich ELISA was performed by the same method as in (1). On a 96-well immunoplate, chimera A-Fc, E57K-Fc and 45-18-Fc (in all of which Fc is Eg1S YTE or Eg1S […]) or the anti-human TL1A antibody produced in Example 16 was captured. Then, with the plate, a 4-fold concentrated culture supernatant of PBMCs stimulated for TL1A production or as a standard, the soluble recombinant His6-TL1A trimer produced in Example 13 was reacted, followed by detection with a biotinylated anti-TL1A antibody (R&D Systems, Inc.).
Sandwich ELISA was performed by the same method as in (1). On a 96-well immunoplate, chimera A-Fc, E57K-Fc and 45-18-Fc (each including Eg1S YTE or Eg1S […] as an Fc) or Fas-Fc (R&D Systems, Inc.) was captured, and then a 6-fold concentrated culture supernatant of human T cells stimulated for AICD or as a standard, Human His6 Fas Ligand/TNFSF6 (Cell Signaling Technology, Inc.) was reacted, followed by detection with a biotinylated anti-FasL antibody included with Human Fas Ligand ELISA Kit (Abcam plc).
(ELISA stands for enzyme-linked immunosorbent assay.)

Chain of primary soluble LIGHT produced from activated human T cells (O43557 83-240 limits assumed): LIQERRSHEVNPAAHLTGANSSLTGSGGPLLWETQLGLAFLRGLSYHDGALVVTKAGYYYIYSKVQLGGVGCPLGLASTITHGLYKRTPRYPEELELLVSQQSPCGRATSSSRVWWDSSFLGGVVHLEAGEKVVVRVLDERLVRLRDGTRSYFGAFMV

B1: chimera A-E57K_R58D-Fc (Eg1S LALAGANA) (Fc fusion)
chain: ETFPPKYLHYDEETSHQLLCDKCPPGTYLKQHCTAKWKTVCAPCPPRHYTQFWNYLKDCRYCNVLCGEREEEARACHATHNRACRCRTGFFAHAGFCLEHASCPPGAGVIAPGTPSQNTQCQPCPDGFFSNETSSKAPCRKHTNCSVFGLLLTQKGNATHDNICSGNSESTQKEPKSSDKTHTCPPCPAPEAAGAPSVFLFPPKPKDTLMISRTPEVTCVVVDVSHEDPEVKFNWYVDGVEVHNAKTKPREEQYNSTYRVVSVLTVLHQDWLNGKEYKCKVSNKALPAPIEKTISKAKGQPREPQVYTLPPSRDELTKNQVSLTCLVKGFYPSDIAVEWESNGQPENNYKTTPPVLDSDGSFFLYSKLTVDKSRWQQGNVFSCSVMHEALHAHYTQKSLSLSPGK
Regarding B1, in test [1], the binding result is reported as “binds”.

B2: chimera A-E57K_R58E-Fc (Eg1S LALAGANA) (Fc fusion)
chain: B1 chain with D58E
For the molecule B2, the binding result in test [1] and in test [2] was “binds” in each case.

B3: chimera A-E57K-Fc (Eg1S YTE) (Fc fusion)
chain: B1 chain with D58R, A192L, A193L, A195G, M210Y, S212T, T214E, A392N
For the molecule B3, the binding result in test [1] and in test [2] was “binds” each time.

B4: chimera A-E57V-Fc (Eg1S LALAGANA) (Fc fusion)
chain: B1 chain with K57V, D58R
As to B4, the binding result in test [1] was “binds”.

B5: chimera A-E57R-Fc (Eg1S LALAGANA) (Fc fusion)
chain: B1 chain with K57R, D58R
B5: in test [1], the binding result is “binds”.

B6: chimera A-E57R-Fc (Eg1S YTE) (Fc fusion)
chain: B1 chain with K57R, D58R, A192L, A193L, A195G, M210Y, S212T, T214E, A392N
Take B6: in test [1], the binding result was “binds”.

B7: chimera A-E57K-Fc (Eg1S LALAGANA) (Fc fusion)
chain: B1 chain with D58R
With B7, the binding result in test [1] and in test [2] was “binds” in each case.

B8: chimera A-Fc (Eg1S LALAGANA) (Fc fusion)
chain: B1 chain with K57E, D58R
Consider B8, for which the binding result in test [2] was “binds”.

B9: chimera A-E57V-Fc (Eg1S YTE) (Fc fusion)
chain: B1 chain with K57V, D58R, A192L, A193L, A195G, M210Y, S212T, T214E, A392N
Take B9: in test [1], the binding result is recorded as “binds”.

B10: chimera A-Fc (Eg1S YTE) (Fc fusion)
chain: B1 chain with K57E, D58R, A192L, A193L, A195G, M210Y, S212T, T214E, A392N
As for B10, the binding result in test [2] is reported as “binds”.

B11: chimera A-E57K_R58E-Fc (Eg1S YTE) (Fc fusion)
chain: B1 chain with D58E, A192L, A193L, A195G, M210Y, S212T, T214E, A392N
notes: also called 45-18-Fc (Eg1S YTE)
As to B11, the binding result in test [1] and in test [2] was “binds” throughout.

B12: chimera A-E57K_R58D-Fc (Eg1S YTE) (Fc fusion)
chain: B1 chain with A192L, A193L, A195G, M210Y, S212T, T214E, A392N
notes: also called 45-10-Fc (Eg1S YTE)
For the molecule B12, in test [1], the binding result was “binds”.
